According to PMC5700101:

Target: PBD–GFP (PBD of Polo, amino acids 350–576, C-terminally fused to GFP10) (UniProt P52304)
Test: BRET
Conditions: live HEK293T cells; fixed amount of Luc-KD vector, increasing PBD–GFP vector; Map205 fragment co-transfected; p-value < 0.0001; parent: 0.197

other: BRET50: 2.49 GFP/Luc
Substance: Luc-KD (KD–IDL of Polo, amino acids 1–349, N-terminally fused to RLucII), KD^WT (from UniProt P52304) NLS7A
